B1: Kinesin-like protein KIF16B, residues 1213 to 1273; numbered along this chain, Q96L93 (parent)
chain: ETWTVFRRYSRFREMHKTLKLKYAELAALEFPPKKLFGNKDERVIAERRSHLEKYLRDFFS

Variants of: B1
Test: abundance fitness (aPCA) (normalised: wild type 0, dead -1); higher = more abundant; growth selection in yeast, the domain comes from the species named
Settings: Homo sapiens

Abundance fitness: each site, then its substitutions
E53: C 0.31, N 0.292, A 0.191, R 0.412, F 0.243, P 0.228, K 0.391, T 0.317, M 0.309, S 0.414, W 0.378, V 0.277, L 0.352, Y 0.329, H 0.059, I 0.197, G 0.426
L56: T -0.001, R -0.584, Y -0.263, P -0.308, D -0.343, C 0.032, K -0.567, N -0.518, S -0.453, I -0.011, M -0.191, E -1.2, V -0.019, Q 0.163
F59: A -0.607, L -0.157, T -0.489, K -0.204, C -0.429, M -0.277, S -0.994, G -0.573, Q -0.51, R -0.461, E -0.627, I -0.031, W -0.005, V -0.121
D58: P 0.09, H 0.09, F 0.049, A 0.087, Q -0.153, C -0.024, S -0.182, L -0.075, W 0.204, V -0.048, M 0.056, I 0.012, R 0.161, G 0.03, N -0.149, K 0.241
S61: N -0.23, P -0.337, L -0.038, M -0.073, R 0.143, A -0.263, T -0.296, G -0.09, Q 0.11, C -0.412, V -0.029, K -0.025, Y -0.81
H51: Y -0.235, M -0.368, K 0.376, Q 0.002, S -0.047, R 0.194, P -0.164, W -0.069, I -0.294, N -0.436, L -0.098
Y55: P -0.19, G 0.021, M 0.185, S 0.12, D -0.613, H -0.116, K 0.481, N -0.249, C 0.265, A -0.007, E -0.942, R 0.396, W 0.281, V -0.082, L 0.182
R57: P -0.087, N -0.395, M -0.468, K -0.094, F -0.33, A -0.444, I -0.388, W -0.447, T -0.309, Q -0.776, H -0.6, S -0.427, Y -0.437, V -0.412, D -0.712, C -0.239, E -0.636, L -0.368
K54: H -0.532, E -0.298, F -0.664, R 0.076, G -0.171, L -0.256, I -0.314, N -0.127, S -0.174, V -0.289, D -0.489, M -0.327, W -0.476, C -0.785, T -0.013, A -0.251, P -0.945
F60: E -1, A -0.729, S -0.585, P -0.759, Q -1.01, R -0.565, W 0.153, I -0.143, M -0.256, G -0.647, C -0.263, V -0.165, L -0.087
L52: K -0.184, G -0.149, W 0.217, F 0.048, P 0.175, V 0.058, R -0.473, N -0.642, T -0.363, I -0.092, M -0.131, A -0.201, S -0.647, Q -0.866, H -0.123

From the Human Domainome abundance scans (Beltran et al. 2025)
